Data as given in US20240174760A1 (ZHEJIANG NANOMAB TECHNOLOGY CENTER, published 2024).
Where two headings read alike, the source gives them in different places. Each block holds one molecule with its values, some of them ahead of it.

Key:
[1] = target: human BCMA his tag protein (Acrobiosystems, BCA-H522y) (human) (UniProt Q02223); assay: comp. ELISA, competitor biotin-BAFF (ligand signal), Ab 4.875 ug/mL
[2] = target: human BCMA his tag protein (Acrobiosystems, BCA-H522y) (human) (UniProt Q02223); assay: comp. ELISA, competitor biotin-APRIL (ligand signal), Ab 1.218 ug/mL
[3] = target: human BCMA his tag protein (Acrobiosystems, BCA-H522y) (human) (UniProt Q02223); assay: comp. ELISA, competitor biotin-APRIL (ligand signal), Ab 19.5 ug/mL
[4] = target: human BCMA his tag protein (Acrobiosystems, BCA-H522y) (human) (UniProt Q02223); assay: comp. ELISA, competitor biotin-BAFF (ligand signal), Ab 1.218 ug/mL
[5] = target: human BCMA his tag protein (Acrobiosystems, BCA-H522y) (human) (UniProt Q02223); assay: comp. ELISA, competitor biotin-APRIL (ligand signal), Ab 4.875 ug/mL
[6] = target: human BCMA his tag protein (Acrobiosystems, BCA-H522y) (human) (UniProt Q02223); assay: comp. ELISA, competitor biotin-BAFF (ligand signal), Ab 19.5 ug/mL
[7] = target: human BCMA his tag protein (Acrobiosystems, BCA-H522y) (human) (UniProt Q02223); assay: comp. ELISA, competitor biotin-BAFF (ligand signal), Ab 78 ug/mL
[8] = target: human BCMA his tag protein (Acrobiosystems, BCA-H522y) (human) (UniProt Q02223); assay: comp. ELISA, competitor biotin-APRIL (ligand signal), Ab 78 ug/mL
[9] = target: T1, human BCMA full-length protein on cells (human, UniProt Q02223 1-184); assay: flow cytometry competition on CHO-K1/BCMA cells; antibody titrated against biotin-APRIL, PE streptavidin readout
T1 construct: whole, on cells; also called CHO-K1/BCMA; BCMA on RPMI8226, Jeko-1, Daudi cells
T1 sequence (looked up): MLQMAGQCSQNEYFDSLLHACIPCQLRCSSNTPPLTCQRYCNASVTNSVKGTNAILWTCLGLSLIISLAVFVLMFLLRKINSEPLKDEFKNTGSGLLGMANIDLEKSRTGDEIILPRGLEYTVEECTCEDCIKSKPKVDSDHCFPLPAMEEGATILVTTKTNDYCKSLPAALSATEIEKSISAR
Protocol: (§1) In a 96-well non-adsorption deep-well plate, the purified antibody and the control antibody were diluted to 1000 nM with DPBS, and then serially diluted to 8 concentration with 3-fold dilution. Biotin-APRIL was diluted to 4 μg/mL with DPBS. 50 μL the antibody diluted in the previous step or DPBS (Blank, Blank-PE tube), respectively, was added to the wells of a non-adsorption 96-well plate having 5×10⁵ CHO-K1/BCMA cells that overexpressed human BCMA, and then the 50 μL diluted APRIL in the previous step was added and mixed, incubated at 4° C. for 40 min. After washing once with pre-cooled DPBS, 150 μL PE Streptavidin (Biolegend, 405210) diluted with DPBS at 1:500 was added to each well, the cells were resuspended, and incubated at 4° C. for 30 min. After 30 minutes, centrifuged at 220 g for 5 minutes at 4° C., the supernatant was discarded, 200 μL pre-cooled DPBS washing solution was added to each well, the cells were resuspended by gently pipetting with a multichannel pipette, centrifuged at 220 g for 5 minutes, the supernatant was discarded, and the washing step was repeated one time. After 2 times of washing, the cells were resuspended in DPBS and detected by a flow analyzer (Beckman, Cytoflex). […]

[10] = target: T2, human BCMA his tag protein (Acrobiosystems, BCA-H522y) (human, UniProt Q02223 1-54); assay: comp. ELISA, competitor biotin-APRIL (ligand signal), Ab 4.875 ug/mL
T2 construct: Bought protein; also called BCMA/TNFR-His; human recombinant BCMA his tag; not shown: his tag
T2 sequence (looked up): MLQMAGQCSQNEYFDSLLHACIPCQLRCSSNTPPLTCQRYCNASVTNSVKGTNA
Protocol: (§2) Plates (Corning) were coated with 2 μg/mL human BCMA his tag protein (Acrobiosystems, BCA-H522y) overnight at 4° C. After blocking and washing, 50 μL diluted antibodies (78 μg/mL, 19.5 μg/mL, 4.875 μg/mL, 1.218 μg/mL) and 50 μL biotin-labeled 1 μg/mL APRIL (Acrobiosystems, APL-H82F5) or 1.25 μg/mL BAFF (Acrobiosystems, BAF-H82F3) ligand were added to each well, and incubated at 37° C. for 1 hour. After washing 3 times, 100 μL HRP-labeled streptavidin (Biolegend, 405210) diluted 1:2000 was added to each well, and incubated at 37° C. for 30 minutes. After washing, 100 μL TMB substrate (Abeam, ab171524) was added to each well and developed for 5 minutes and the reaction was stopped by 3M HCl. The absorbance value at […] was read using a microplate reader (Tecan, SPARK).

[11] = target: T2, human BCMA his tag protein …; assay: comp. ELISA, competitor biotin-BAFF (ligand signal), Ab 78 ug/mL
Protocol: as §2

[12] = target: T2, human BCMA his tag protein …; assay: comp. ELISA, competitor biotin-APRIL (ligand signal), Ab 19.5 ug/mL
Protocol: as §2

[13] = target: T2, human BCMA his tag protein …; assay: comp. ELISA, competitor biotin-BAFF (ligand signal), Ab 1.218 ug/mL
Protocol: as §2

[14] = target: T2, human BCMA his tag protein …; assay: comp. ELISA, competitor biotin-APRIL (ligand signal), Ab 78 ug/mL
Protocol: as §2

[15] = target: T2, human BCMA his tag protein …; assay: comp. ELISA, competitor biotin-BAFF (ligand signal), Ab 4.875 ug/mL
Protocol: as §2

[16] = target: T2, human BCMA his tag protein …; assay: comp. ELISA, competitor biotin-APRIL (ligand signal), Ab 1.218 ug/mL
Protocol: as §2

[17] = target: T1, human BCMA full-length protein on cells; assay: flow cytometry on RPMI8226 cells, anti-human IgG PE [A&B) A]
Protocol: The EC50 of the antibody was calculated by fitting the curve.

[18] = target: T2, human BCMA his tag protein …; assay: comp. ELISA, competitor biotin-BAFF (ligand signal), Ab 19.5 ug/mL
Protocol: as §2

[19] = target: T1, human BCMA full-length protein on cells; assay: flow cytometry competition on CHO-K1/BCMA cells; antibody titrated against biotin-APRIL, PE streptavidin readout; remark: listed apart in the source
Protocol: as §1

OD450 [1]: 3.29 OD450
OD450 [2]: 2.89 OD450
OD450 [3]: 2.99 OD450
OD450 [4]: 3.38 OD450
OD450 [5]: 3.07 OD450
OD450 [6]: 3.28 OD450
OD450 [7]: 3.24 OD450
OD450 [8]: 3.04 OD450
Molecule: Isotype-2 (antibody)

IC50 [9]: 81.8 nM
OD450 [10]: 2.9 OD450
OD450 [11]: 0.03 OD450
OD450 [12]: 0.31 OD450
OD450 [13]: 3.39 OD450
OD450 [14]: 0.05 OD450
OD450 [15]: 3.32 OD450
OD450 [16]: 3.1 OD450
EC50 [17]: 5.7 nM
OD450 [18]: 0.31 OD450
IC50 [19]: 89.6 nM
B1: BMK1 (scFv)
scFv: DIVLTQSPASLAVSLGKRATINCRASESVSVIGAHLIHWYQQKPGQPPKLLIYLASNLETGVPARFSGSGSGTDFTLTISSLQAEDAAIYYCLQSRIFPRTFGGGTKLEIKGSTSGSGKPGSGEGSTKGQVQLVQSGSELKKPGASVKVSCKASGYTFTDYSINWVRQAPGQGLEWMGWINTETREPAYAYDFRGRFVFSLDTSVSTAYLQISSLKAEDTAVYYCARDYSYAMDYWGQGTLVTVSS
notes: also called positive control antibody; BMK control antibody
